Laboratory results from patent publication US20140179604A1 (U S A REPRESENTED BY THE DEPARTMENT OF VETERANS AFFAIRS, published 2014).
Non-standard residues stand in square brackets, D forms with d. No end group written: not given here. *: point of attachment. Desaminotyrosyl = O=C(CCc1ccc(O)cc1)*; NMeY = CN[C@@H](Cc1ccc(O)cc1)C(=O)O; Agmatine = N=C(N)NCCCCN*; Nle = CCCC[C@H](N)C(=O)O; Orn = NCCC[C@H](N)C(=O)O; dAbu = CC[C@@H](N)C(=O)O; Abu = CC[C@H](N)C(=O)O; Aoc = NCCCCCCCC(=O)O; GABA = NCCCC(=O)O

T1: GHRH receptor (membrane receptors of human anterior pituitary cells) (human, UniProt Q02643 23-423)
T1 construct: whole, on cells; Native receptor in a membrane fraction of purchased normal human pituitaries, not intact cells; also called hGHRH receptor; human pituitary membrane homogenates
T1 sequence (looked up): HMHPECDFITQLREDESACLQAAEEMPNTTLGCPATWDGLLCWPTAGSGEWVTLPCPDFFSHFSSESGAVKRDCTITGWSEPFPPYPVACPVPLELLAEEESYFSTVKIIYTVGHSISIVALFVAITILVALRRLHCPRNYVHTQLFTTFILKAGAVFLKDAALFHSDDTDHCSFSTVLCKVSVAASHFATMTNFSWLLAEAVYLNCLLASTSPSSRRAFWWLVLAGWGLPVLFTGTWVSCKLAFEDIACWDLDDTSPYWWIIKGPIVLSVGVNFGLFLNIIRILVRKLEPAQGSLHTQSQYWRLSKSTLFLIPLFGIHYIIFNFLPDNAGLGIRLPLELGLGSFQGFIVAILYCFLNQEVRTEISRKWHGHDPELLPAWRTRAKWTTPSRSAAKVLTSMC

T2: GHRH receptor (membrane receptors of human anterior pituitary cells) (human) (UniProt Q02643)
T2 sequence (looked up): T1 sequence (looked up)

B1: P-20351 [Ac-N-Me-Tyr^1, D-Ala^2, Gln^8, Orn^12, Abu^15, Orn^21, Nle^27, Asp^28, Agm^29]hGHRH(1-29)NH2 (peptide)
peptide: Ac-[NMeY][dA]DAIFTQSYR[Orn]VL[Abu]QLSAR[Orn]LLQDI[Nle]D[Agmatine]
SMILES: CCCC[C@H](NC(=O)[C@@H](NC(=O)[C@H](CC(=O)O)NC(=O)[C@H](CCC(N)=O)NC(=O)[C@H](CC(C)C)NC(=O)[C@H](CC(C)C)NC(=O)[C@H](CCCN)NC(=O)[C@H](CCCNC(=N)N)NC(=O)[C@H](C)NC(=O)[C@H](CO)NC(=O)[C@H](CC(C)C)NC(=O)[C@H](CCC(N)=O)NC(=O)[C@H](CC)NC(=O)[C@H](CC(C)C)NC(=O)[C@@H](NC(=O)[C@H](CCCN)NC(=O)[C@H](CCCNC(=N)N)NC(=O)[C@H](Cc1ccc(O)cc1)NC(=O)[C@H](CO)NC(=O)[C@H](CCC(N)=O)NC(=O)[C@@H](NC(=O)[C@H](Cc1ccccc1)NC(=O)[C@@H](NC(=O)[C@H](C)NC(=O)[C@H](CC(=O)O)NC(=O)[C@@H](C)NC(=O)[C@H](Cc1ccc(O)cc1)N(C)C(C)=O)[C@@H](C)CC)[C@@H](C)O)C(C)C)[C@@H](C)CC)C(=O)N[C@@H](CC(=O)O)C(=O)NCCCCNC(=N)N
notes: also called MR-351; Peptide 20351
B2: P-27401 [Dat^1, D-Ala^2, Gln^8, Orn^12, Abu^15, Orn^21, Nle^27, Asp^28, D-Arg^29]hGHRH(1-29)NH-CH3 (peptide)
peptide: [Desaminotyrosyl][dA]DAIFTQSYR[Orn]VL[Abu]QLSAR[Orn]LLQDI[Nle]D[dR]-NHMe
SMILES: CCCC[C@H](NC(=O)[C@@H](NC(=O)[C@H](CC(=O)O)NC(=O)[C@H](CCC(N)=O)NC(=O)[C@H](CC(C)C)NC(=O)[C@H](CC(C)C)NC(=O)[C@H](CCCN)NC(=O)[C@H](CCCNC(=N)N)NC(=O)[C@H](C)NC(=O)[C@H](CO)NC(=O)[C@H](CC(C)C)NC(=O)[C@H](CCC(N)=O)NC(=O)[C@H](CC)NC(=O)[C@H](CC(C)C)NC(=O)[C@@H](NC(=O)[C@H](CCCN)NC(=O)[C@H](CCCNC(=N)N)NC(=O)[C@H](Cc1ccc(O)cc1)NC(=O)[C@H](CO)NC(=O)[C@H](CCC(N)=O)NC(=O)[C@@H](NC(=O)[C@H](Cc1ccccc1)NC(=O)[C@@H](NC(=O)[C@H](C)NC(=O)[C@H](CC(=O)O)NC(=O)[C@@H](C)NC(=O)CCc1ccc(O)cc1)[C@@H](C)CC)[C@@H](C)O)C(C)C)[C@@H](C)CC)C(=O)N[C@@H](CC(=O)O)C(=O)N[C@H](CCCNC(=N)N)C(=O)NC
notes: also called MR-401
B3: P-25504 [Dat^1, D-Abu^2, Orn^12, Abu^15, Orn^21, Nle^27, Gab^30]hGHRH(1-30)NH2 (peptide)
peptide: [Desaminotyrosyl][dAbu]DAIFTNSYR[Orn]VL[Abu]QLSAR[Orn]LLQDI[Nle]SR[GABA]-NH2
SMILES: CCCC[C@H](NC(=O)[C@@H](NC(=O)[C@H](CC(=O)O)NC(=O)[C@H](CCC(N)=O)NC(=O)[C@H](CC(C)C)NC(=O)[C@H](CC(C)C)NC(=O)[C@H](CCCN)NC(=O)[C@H](CCCNC(=N)N)NC(=O)[C@H](C)NC(=O)[C@H](CO)NC(=O)[C@H](CC(C)C)NC(=O)[C@H](CCC(N)=O)NC(=O)[C@H](CC)NC(=O)[C@H](CC(C)C)NC(=O)[C@@H](NC(=O)[C@H](CCCN)NC(=O)[C@H](CCCNC(=N)N)NC(=O)[C@H](Cc1ccc(O)cc1)NC(=O)[C@H](CO)NC(=O)[C@H](CC(N)=O)NC(=O)[C@@H](NC(=O)[C@H](Cc1ccccc1)NC(=O)[C@@H](NC(=O)[C@H](C)NC(=O)[C@H](CC(=O)O)NC(=O)[C@@H](CC)NC(=O)CCc1ccc(O)cc1)[C@@H](C)CC)[C@@H](C)O)C(C)C)[C@@H](C)CC)C(=O)N[C@@H](CO)C(=O)N[C@@H](CCCNC(=N)N)C(=O)NCCCC(N)=O
notes: also called MR-504; Peptide 25504
B4: P-27408 [Dat^1, D-Ala^2, Gln^8, Orn^12, Abu^15, Orn^21, Nle^27, Asp^28]hGHRH(1-29)NH-CH3 (peptide)
peptide: [Desaminotyrosyl][dA]DAIFTQSYR[Orn]VL[Abu]QLSAR[Orn]LLQDI[Nle]DR-NHMe
SMILES: CCCC[C@H](NC(=O)[C@@H](NC(=O)[C@H](CC(=O)O)NC(=O)[C@H](CCC(N)=O)NC(=O)[C@H](CC(C)C)NC(=O)[C@H](CC(C)C)NC(=O)[C@H](CCCN)NC(=O)[C@H](CCCNC(=N)N)NC(=O)[C@H](C)NC(=O)[C@H](CO)NC(=O)[C@H](CC(C)C)NC(=O)[C@H](CCC(N)=O)NC(=O)[C@H](CC)NC(=O)[C@H](CC(C)C)NC(=O)[C@@H](NC(=O)[C@H](CCCN)NC(=O)[C@H](CCCNC(=N)N)NC(=O)[C@H](Cc1ccc(O)cc1)NC(=O)[C@H](CO)NC(=O)[C@H](CCC(N)=O)NC(=O)[C@@H](NC(=O)[C@H](Cc1ccccc1)NC(=O)[C@@H](NC(=O)[C@H](C)NC(=O)[C@H](CC(=O)O)NC(=O)[C@@H](C)NC(=O)CCc1ccc(O)cc1)[C@@H](C)CC)[C@@H](C)O)C(C)C)[C@@H](C)CC)C(=O)N[C@@H](CC(=O)O)C(=O)N[C@@H](CCCNC(=N)N)C(=O)NC
notes: also called MR-408; MR408
B5: P-21301 [N-Me-Tyr^1, Orn^12, Abu^15, Orn^21, Nle^27, Asp^28, Amc^30]hGHRH(1-30)NH2 (peptide, from a related filing)
peptide: [NMeY]ADAIFTNSYR[Orn]VL[Abu]QLSAR[Orn]LLQDI[Nle]DR[Aoc]-NH2
modifications: N-terminus assumed
SMILES: CCCC[C@H](NC(=O)[C@@H](NC(=O)[C@H](CC(=O)O)NC(=O)[C@H](CCC(N)=O)NC(=O)[C@H](CC(C)C)NC(=O)[C@H](CC(C)C)NC(=O)[C@H](CCCN)NC(=O)[C@H](CCCNC(=N)N)NC(=O)[C@H](C)NC(=O)[C@H](CO)NC(=O)[C@H](CC(C)C)NC(=O)[C@H](CCC(N)=O)NC(=O)[C@H](CC)NC(=O)[C@H](CC(C)C)NC(=O)[C@@H](NC(=O)[C@H](CCCN)NC(=O)[C@H](CCCNC(=N)N)NC(=O)[C@H](Cc1ccc(O)cc1)NC(=O)[C@H](CO)NC(=O)[C@H](CC(N)=O)NC(=O)[C@@H](NC(=O)[C@H](Cc1ccccc1)NC(=O)[C@@H](NC(=O)[C@H](C)NC(=O)[C@H](CC(=O)O)NC(=O)[C@H](C)NC(=O)[C@H](Cc1ccc(O)cc1)NC)[C@@H](C)CC)[C@@H](C)O)C(C)C)[C@@H](C)CC)C(=O)N[C@@H](CC(=O)O)C(=O)N[C@@H](CCCNC(=N)N)C(=O)NCCCCCCCC(N)=O
B6: P-27415 [N-Me-Tyr^1, Orn^12, Abu^15, Orn^21, Nle^27, Gab^30]hGHRH(1-30)NH-CH3 (peptide, from a related filing)
peptide: YADAIFTNSYRKVLGQLSARKLLQDIMSRQ
modifications: N-Me-Tyr^1; Orn^12; Abu^15; Orn^21; Nle^27; Gab^30 (in place of Gln^30); C-terminal -NH-CH3

Molecular target: T1, GHRH receptor (membrane receptors of …)
Assay: competition with 125I-[His1,Nle27]hGHRH(1-32)NH2, human pituitary membranes
Text: Normal human pituitary was purchased from the National Hormone and Peptide Program (UCLA Medical Center, Torrance, Calif.).

Row | Binder | IC50 [nM] | Relative affinity (Binding potency) compared to JI-38 [JI-38 = 1] | Relative affinity (Binding potency) compared to hGHRH(1-29)
1 | [NMeY][dA]DAIFTNSYR[Orn]VL[Abu]QLSAR[Orn]LLQDI[Nle]DR-NHEt (also called MR-421; Peptide 28421) [P-28421 [N-Me-Tyr^1, D-Ala^2, Orn^12, Abu^15, Orn^21, Nle^27, Asp^28]hGHRH(1-29)NH-CH2-CH3] | 3.05 | 0.9 | 2.5 hGHRH(1-29)NH2 = 1
2 | B1 | 3.87 | 0.71 | 1.98 hGHRH(1-29)NH2 = 1
3 | B2 | 2.6 | 1.05 | 2.94 hGHRH(1-29)NH2 = 1
4 | B3 | 2.85 | 0.96 | 2.68 hGHRH(1-29)NH2 = 1
5 | [NMeY][dA]DAIFTQSYR[Orn]VL[Abu]QLSAR[Orn]LLQDI[Nle]DR-NHMe [P-27403 [N-Me-Tyr^1, D-Ala^2, Gln^8, Orn^12, Abu^15, Orn^21, Nle^27, Asp^28]hGHRH(1-29)NH-CH3] | 0.74 | 3.69 | 10.3 hGHRH(1-29)NH2 = 1
6 | [NMeY][dA]DAIFTQSYR[Orn]VL[Abu]QLSAR[Orn]LLQDI[Nle]D[Agmatine] (also called Peptide 20361) [P-20361 [N-Me-Tyr^1, D-Ala^2, Gln^8, Orn^12, Abu^15, Orn^21, Nle^27, Asp^28, Agm^29]hGHRH(1-29)NH2] | 1.19 | 2.3 | 6.42 hGHRH(1-29)NH2 = 1
7 | [NMeY][dA]DAIFTQSYR[Orn]VL[Abu]QLSAR[Orn]LLQDI[Nle]DR-NHEt (also called MR-420; Peptide 28420) [P-28420 [N-Me-Tyr^1, D-Ala^2, Gln^8, Orn^12, Abu^15, Orn^21, Nle^27, Asp^28]hGHRH(1-29)NH-CH2-CH3] | 2.7 | 1.01 | 2.83 hGHRH(1-29)NH2 = 1
8 | B4 | 6.32 | 0.53 | 1.21 hGHRH(1-29)NH2 = 1

Molecular target: T2, GHRH receptor (membrane receptors of human anterior pituitary cells) (human)
Assay: competition with 125I-JV-1-42, human pituitary membranes

Row | Binder | IC50 [nM] | Relative affinity (Binding potency) vs JI-38 [JI-38 = 1]
9 | B5 | 2.99 | 1.45
10 | B6 | 3.02 | 1.44

Molecular target: T1, GHRH receptor (membrane receptors of …)
Assay: as above
Text: Normal human pituitaries were purchased from the National Hormone and Peptide Program (A. F. Parlow, Los Angeles, County Harbor-UCLA Medical Center, Torrance, Calif.).

Row | Binder | IC50 [nM] | Relative affinity (Binding potency) vs JI-38 [JI-38 = 1]
11 | [NMeY][dA]DAIFTNSYR[Orn]VL[Abu]QLSAR[Orn]LLQDI[Nle]DR-NHEt (also called MR-421; Peptide 28421) [P-28421 [N-Me-Tyr^1, D-Ala^2, Orn^12, Abu^15, Orn^21, Nle^27, Asp^28]hGHRH(1-29)NH-CH2-CH3] | 1.47 | 2.96
12 | B1 | 3.44 | 1.26
13 | B2 | 2.74 | 1.59
14 | B3 | 1.44 | 3.02
15 | [NMeY][dA]DAIFTQSYR[Orn]VL[Abu]QLSAR[Orn]LLQDI[Nle]DR-NHMe [P-27403 [N-Me-Tyr^1, D-Ala^2, Gln^8, Orn^12, Abu^15, Orn^21, Nle^27, Asp^28]hGHRH(1-29)NH-CH3] | 0.16 | 27.2
16 | [NMeY][dA]DAIFTQSYR[Orn]VL[Abu]QLSAR[Orn]LLQDI[Nle]D[Agmatine] (also called Peptide 20361) [P-20361 [N-Me-Tyr^1, D-Ala^2, Gln^8, Orn^12, Abu^15, Orn^21, Nle^27, Asp^28, Agm^29]hGHRH(1-29)NH2] | 0.82 | 5.3
17 | [NMeY][dA]DAIFTQSYR[Orn]VL[Abu]QLSAR[Orn]LLQDI[Nle]DR-NHEt (also called MR-420; Peptide 28420) [P-28420 [N-Me-Tyr^1, D-Ala^2, Gln^8, Orn^12, Abu^15, Orn^21, Nle^27, Asp^28]hGHRH(1-29)NH-CH2-CH3] | 0.52 | 8.37
18 | B4 | 0.55 | 7.91
